T1: HCoV-HKU1 spike antigens (bead panel) (HCoV-HKU1, UniProt Q5MQD0 13-1300)
T1 sequence: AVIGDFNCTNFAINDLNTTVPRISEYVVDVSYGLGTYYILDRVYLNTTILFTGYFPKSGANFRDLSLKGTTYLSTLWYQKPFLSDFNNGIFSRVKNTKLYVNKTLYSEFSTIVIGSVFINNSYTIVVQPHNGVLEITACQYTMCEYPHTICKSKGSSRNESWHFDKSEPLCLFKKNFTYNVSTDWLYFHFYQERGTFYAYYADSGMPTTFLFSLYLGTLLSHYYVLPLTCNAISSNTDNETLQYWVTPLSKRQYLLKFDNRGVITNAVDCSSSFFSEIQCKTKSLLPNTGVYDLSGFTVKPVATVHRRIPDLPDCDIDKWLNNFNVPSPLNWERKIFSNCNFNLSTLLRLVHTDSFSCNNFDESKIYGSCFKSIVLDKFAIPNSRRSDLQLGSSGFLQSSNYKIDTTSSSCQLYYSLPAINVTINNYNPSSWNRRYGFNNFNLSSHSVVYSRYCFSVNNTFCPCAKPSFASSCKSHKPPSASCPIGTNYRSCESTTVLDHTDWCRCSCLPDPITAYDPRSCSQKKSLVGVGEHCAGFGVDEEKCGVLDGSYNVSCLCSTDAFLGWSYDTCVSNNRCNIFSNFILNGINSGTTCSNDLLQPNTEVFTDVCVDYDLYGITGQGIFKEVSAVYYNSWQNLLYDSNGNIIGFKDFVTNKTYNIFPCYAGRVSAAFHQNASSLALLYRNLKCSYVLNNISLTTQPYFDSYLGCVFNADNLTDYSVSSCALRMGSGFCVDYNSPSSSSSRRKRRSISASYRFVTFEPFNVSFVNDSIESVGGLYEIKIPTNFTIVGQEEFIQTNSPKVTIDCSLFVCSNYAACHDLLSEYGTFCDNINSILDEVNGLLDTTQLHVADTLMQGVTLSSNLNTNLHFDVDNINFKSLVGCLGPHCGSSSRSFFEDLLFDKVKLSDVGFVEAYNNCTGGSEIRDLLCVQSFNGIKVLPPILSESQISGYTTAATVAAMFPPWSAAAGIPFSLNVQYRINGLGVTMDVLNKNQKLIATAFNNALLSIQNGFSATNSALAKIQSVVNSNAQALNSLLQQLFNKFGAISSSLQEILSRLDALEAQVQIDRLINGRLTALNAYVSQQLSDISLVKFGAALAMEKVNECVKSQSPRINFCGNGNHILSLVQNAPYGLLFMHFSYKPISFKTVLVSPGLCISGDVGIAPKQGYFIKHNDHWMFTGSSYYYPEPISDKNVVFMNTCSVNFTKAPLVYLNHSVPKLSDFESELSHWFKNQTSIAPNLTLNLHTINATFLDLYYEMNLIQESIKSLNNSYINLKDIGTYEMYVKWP

T2: HCoV-NL63 spike antigens (bead panel) (HCoV-NL63, UniProt Q6Q1S2 19-1296)
T2 sequence: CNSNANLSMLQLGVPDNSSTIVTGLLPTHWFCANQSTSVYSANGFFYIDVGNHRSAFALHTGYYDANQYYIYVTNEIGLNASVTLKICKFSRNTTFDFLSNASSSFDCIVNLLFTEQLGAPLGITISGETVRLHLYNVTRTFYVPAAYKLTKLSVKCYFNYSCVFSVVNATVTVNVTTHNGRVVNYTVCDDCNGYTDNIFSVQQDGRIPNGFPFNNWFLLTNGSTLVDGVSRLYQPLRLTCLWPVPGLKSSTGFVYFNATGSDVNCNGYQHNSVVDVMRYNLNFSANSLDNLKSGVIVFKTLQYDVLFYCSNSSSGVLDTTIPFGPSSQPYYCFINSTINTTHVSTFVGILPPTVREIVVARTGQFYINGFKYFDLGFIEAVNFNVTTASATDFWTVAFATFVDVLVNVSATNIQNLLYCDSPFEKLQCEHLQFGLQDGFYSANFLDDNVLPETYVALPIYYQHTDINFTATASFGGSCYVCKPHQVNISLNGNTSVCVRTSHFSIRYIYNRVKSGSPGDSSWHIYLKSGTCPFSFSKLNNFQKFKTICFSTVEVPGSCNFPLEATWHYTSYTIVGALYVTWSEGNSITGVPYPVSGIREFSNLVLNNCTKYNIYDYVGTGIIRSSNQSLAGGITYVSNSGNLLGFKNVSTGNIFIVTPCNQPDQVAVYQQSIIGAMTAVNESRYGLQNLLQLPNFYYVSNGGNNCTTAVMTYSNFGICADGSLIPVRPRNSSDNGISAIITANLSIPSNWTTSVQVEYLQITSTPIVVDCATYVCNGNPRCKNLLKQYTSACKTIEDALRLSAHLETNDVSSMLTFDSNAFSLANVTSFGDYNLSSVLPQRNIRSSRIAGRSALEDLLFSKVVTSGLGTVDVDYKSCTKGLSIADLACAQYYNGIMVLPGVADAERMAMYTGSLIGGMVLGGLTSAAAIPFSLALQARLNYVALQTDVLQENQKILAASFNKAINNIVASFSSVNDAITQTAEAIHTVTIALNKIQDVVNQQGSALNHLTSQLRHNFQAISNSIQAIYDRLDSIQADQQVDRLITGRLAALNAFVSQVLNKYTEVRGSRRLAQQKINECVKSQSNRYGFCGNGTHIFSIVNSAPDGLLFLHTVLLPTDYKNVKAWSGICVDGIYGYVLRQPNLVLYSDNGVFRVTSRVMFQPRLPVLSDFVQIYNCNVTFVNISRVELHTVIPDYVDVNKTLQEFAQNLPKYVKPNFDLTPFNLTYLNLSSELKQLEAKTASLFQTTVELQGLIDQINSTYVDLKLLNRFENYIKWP


Legend:
[1] = target: T1, HCoV-HKU1 spike antigens (bead panel); experiment: multiplex bead assay
[2] = target: T2, HCoV-NL63 spike antigens (bead panel); experiment: multiplex bead assay

Binder	binding result [1]	binding result [2]
COV_2025 (antibody, V domains shown, human IgG1) VH: QVHLVQSGAEVKKPGASVKVSCKVSGYTLVELSVHWVRQAPAKGLEWIGGFDPEDGETIYAQKFQGRVTMTEDTSTDTAYMELTNLRSEDTAVYYCVTSQPFVSPNWFDPWGQGTLVTVSS VL: QSALTQPASVSGSPGQSITISCTGTSRDVGAYNYVSWYQQHPGKAPKLMIYEVTTRPSGVSNRFSGSKSGNTASLTISGLQAEDEADYYCSSYTGSRTLVFGTGTKVTVL	no binding	no binding
COV_2014 (antibody, V domains shown, human IgG1) VH: QVQLVQSGAEVKKPGASVKVSCKVSGYTLTELSMHWVRQAPGKGLEWMGGFDPEDGETIYAQKFQGRVTMTEDTSTDTAYMELSSLRSEDTAVYYCATGKINYYDSSGYYGTFDYWGQGTLVTVSS VL: AIQLTQSPSSLSASVGDRVTITCRASQGISSYLAWYQQKPGKAPKLLIYAASTLQSGVPSRFSGSGSGTDFTLTISSLQPEDFATYYCQQLNSYHLTFGQGTRLEIK	no binding	no binding
COV_2172 (SEQ ID NO:872/877) (antibody, V domains shown) VH: EVQLVESGGGVVQPGRSLRLSCAPSGFTFSTYAMHWVRQAPGKGLEWVAVISYDGSIKYYADSVKGRFTISRDNTMNTVFLQMNSLRAEDTAVYFCAKGGERWELFTSFDYWGQGTQVTVSS VL: QSALTQPRSVSGSPGQSVTISCTGTSSDVGGYNYVSWYQQHPGKAPKLMIYDVSKRPSGVPDRFSGSKSGNTASLTISGLQAEDEADYYCCSYAGSYTFVFGGGTKLTVLG	no binding	no binding
COV_2143 (antibody, V domains shown, human IgG1) VH: EVQLVESGGGVVQPGRSLRLSCAASGFTFNSFAMLWVRQAPGKGLEWVALFSYDGSNKYYADSVKGRFTISRDNSKNTLYLQMNNLRAVDTAVYYCARASPYDINGYYLHRIAFDIWGQGTMVTVSS VL: QSVLMQPPSVSGAPGQRVTISCTGSSSNIGAGYDVHWYQQLPGTAPKLLMYGNSNRPSGVPDRFSGSKSGTSASLAITGLQAEDEADYYCQSYDSGLSGWVFGGGTKLTVLG	no binding	no binding
COV_2174 (antibody, V domains shown, human IgG1) VH: EVQLAESGGGLVKPGGSLRLSCAASGFTFSDYYMSWIRQAPGKGLEWVSYISSSGSTIYYADSVKGRFTISRDNAKNSLYLQMNSLRAEDTAVYYCARDWSVVVVPAAPAVDVWGQGTTVTVSS VL: DIQMTQSPSSLSASVGDRVTITCRASQGISNYLAWFQQKPGKAPKSLIYAASSLQSGVPSKFSGSGSGTDFTLTISSLQPEDFATYYCQQYNSYPLTFGGGTKVEIKR	no binding	no binding
COV_2093 (antibody, V domains shown, human IgG1) VH: EVQLVESGGGLVQPGGSLRLSCAASGFMFNRFWMSWVRQAPGKGLEWVTNIKQDGSEKNYVDSVKGRFTISRDNAKNSLYLQMNSLRAEDTAVYYCARDGLYYDFRSPSPFYGMDVWGQGTTVTVSS VL: DIQMTQSPSSLSASVGDRVTITCRASQSISSYLNWYQHKSGKAPKLLIYAASRLQSGVPSRFSGSGSGTDFTLTIVSLQPEDLATYYCQQSYSTPRTFGGGTKVEIKR	no binding	no binding
COV_3077 (antibody, V domains shown, human IgG1) VH: QVQLQESGPGLVKPSETLSLTCAVSGYSISSGYYWGWIRQPPGKGLEWIGSIYHSGSTYYNPSLKSRVTISVDTSKNQFSLKLSSVTAADTAVYYCARALYDAFDIWGQGTMVTVSS VL: not shown	no binding	no binding
COV_2039 (antibody, V domains shown, human IgG1) VH: QVQLVQSGAEVKKPGASVKVSCKVSGYMLIELSMHWVRQAPGKGLEWMGGFDPEDAETIYAQEFQGRVTMTEDTSTDTAYMELSSLRSEDTAVYYCTTGPAVTNRPADYWGPGTLVTVSS VL: QSVLTQPPSVSGAPGQRVTISCTGSSSNIGASYDVHWYQQLPGTAPKLLIYANSNRPSGVPDRFSGSKSGTSASLAITGLQAEDEADYYCQSYDSSLSYSVVFGGGTKLTVL	no binding	no binding

Reference: patent publication US20240101645A1 (HENRY M JACKSON FOUNDATION FOR THE ADVANCEMENT OF MILITARY …, published 2024)
